In paper PMC9482650, “Quantitative fragmentomics allow affinity mapping of interactomes” (Nature Communications, 2022):

T1: LNX2_2, Q8N448
T1 sequence (Q8N448 334-432, limits assumed, looked up): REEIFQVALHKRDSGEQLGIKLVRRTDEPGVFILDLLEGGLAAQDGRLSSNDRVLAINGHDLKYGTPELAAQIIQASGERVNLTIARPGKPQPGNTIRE

T2: MPP6, Q9NZW5
T2 sequence (Q9NZW5 125-219, limits assumed, looked up): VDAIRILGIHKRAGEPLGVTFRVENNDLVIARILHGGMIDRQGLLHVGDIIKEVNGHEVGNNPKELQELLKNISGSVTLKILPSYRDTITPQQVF

T3: PCLO, Q9Y6V0
T3 sequence (Q9Y6V0 4491-4600, limits assumed, looked up): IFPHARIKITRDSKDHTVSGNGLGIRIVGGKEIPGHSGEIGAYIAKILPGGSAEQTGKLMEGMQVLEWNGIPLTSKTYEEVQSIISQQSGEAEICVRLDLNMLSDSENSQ

T4: SNTG1, Q9NSN8
T4 sequence (Q9NSN8 52-150, limits assumed, looked up): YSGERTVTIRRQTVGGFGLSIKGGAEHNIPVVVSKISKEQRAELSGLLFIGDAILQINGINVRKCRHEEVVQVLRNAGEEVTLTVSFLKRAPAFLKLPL

T5: PDZRN3_1, Q9UPQ7
T5 sequence (Q9UPQ7 244-349, limits assumed, looked up): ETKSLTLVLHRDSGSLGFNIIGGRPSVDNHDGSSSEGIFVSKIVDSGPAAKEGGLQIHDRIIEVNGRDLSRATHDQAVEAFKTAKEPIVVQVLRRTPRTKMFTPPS

T6: GRIP1_7, Q9Y3R0
T6 sequence (Q9Y3R0 999-1096, limits assumed, looked up): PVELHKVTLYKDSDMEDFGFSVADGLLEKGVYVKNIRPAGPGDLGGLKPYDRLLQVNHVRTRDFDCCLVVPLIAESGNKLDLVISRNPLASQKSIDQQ

T7: HTRA4, P83105
T7 sequence (P83105 378-476, limits assumed, looked up): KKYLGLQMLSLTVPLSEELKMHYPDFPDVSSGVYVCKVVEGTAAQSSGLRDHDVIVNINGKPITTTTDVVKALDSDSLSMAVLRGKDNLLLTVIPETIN

T8: HTRA3, P83110
T8 sequence (P83110 354-453, limits assumed, looked up): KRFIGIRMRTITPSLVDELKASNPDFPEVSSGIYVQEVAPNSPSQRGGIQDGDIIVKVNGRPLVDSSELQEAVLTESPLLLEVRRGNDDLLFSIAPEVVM

T9: MPDZ_12, O75970
T9 sequence (O75970 1857-1958, limits assumed, looked up): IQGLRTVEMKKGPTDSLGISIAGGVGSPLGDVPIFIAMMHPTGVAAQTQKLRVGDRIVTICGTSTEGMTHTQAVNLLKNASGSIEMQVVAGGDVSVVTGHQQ

T10: RADIL, Q96JH8
T10 sequence (Q96JH8 971-1071, limits assumed, looked up): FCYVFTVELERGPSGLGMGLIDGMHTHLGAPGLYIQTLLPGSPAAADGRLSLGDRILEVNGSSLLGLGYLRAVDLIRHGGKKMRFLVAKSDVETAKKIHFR

T11: SNTB1, Q13884
T11 sequence (Q13884 107-205, limits assumed, looked up): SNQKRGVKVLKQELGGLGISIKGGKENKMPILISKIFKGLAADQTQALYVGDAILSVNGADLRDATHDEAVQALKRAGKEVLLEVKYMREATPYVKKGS


What was measured:
Test in all cases: holdup assay
Design in all cases: key: below the threshold = too weak to quantify, mostly under pKd 3.1 to 4
Settings in all cases: plain residues with an end cap or a label only (N-terminal biotin on a linker: ttds)
GORASP1, Q9BQQ3 = biological target: GORASP1, Q9BQQ3
Sequence of GORASP1, Q9BQQ3 (Q9BQQ3 1-208): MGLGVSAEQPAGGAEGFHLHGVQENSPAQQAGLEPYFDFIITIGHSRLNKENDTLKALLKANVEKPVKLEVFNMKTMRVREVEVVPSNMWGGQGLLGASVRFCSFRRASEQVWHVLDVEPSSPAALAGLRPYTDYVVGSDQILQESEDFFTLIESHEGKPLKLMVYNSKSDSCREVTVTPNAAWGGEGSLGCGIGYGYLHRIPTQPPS

Inadl_3, Q8NI35 = biological target: Inadl_3, Q8NI35
Sequence of Inadl_3, Q8NI35 (Q8NI35 359-469): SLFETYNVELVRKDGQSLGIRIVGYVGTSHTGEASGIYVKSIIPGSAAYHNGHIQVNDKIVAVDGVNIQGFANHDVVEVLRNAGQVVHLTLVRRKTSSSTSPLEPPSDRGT

NHERF4_1, Q86UT5-2 = biological target: NHERF4_1, Q86UT5-2
Sequence of NHERF4_1, Q86UT5-2 (Q86UT5 other isoform, or with tags, fused parts or gaps): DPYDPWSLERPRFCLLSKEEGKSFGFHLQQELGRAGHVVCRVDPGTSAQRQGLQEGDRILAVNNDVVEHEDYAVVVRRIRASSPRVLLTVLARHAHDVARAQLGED

Inadl_5, Q8NI35 = biological target: Inadl_5, Q8NI35
Sequence of Inadl_5, Q8NI35 (Q8NI35 673-780): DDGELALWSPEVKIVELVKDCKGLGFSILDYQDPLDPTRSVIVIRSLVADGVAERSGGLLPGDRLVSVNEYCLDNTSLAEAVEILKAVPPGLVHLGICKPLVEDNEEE

LNX2_2, Q8N448 = biological target: T1, LNX2_2, Q8N448
MPP6, Q9NZW5 = biological target: T2, MPP6, Q9NZW5
PCLO, Q9Y6V0 = biological target: T3, PCLO, Q9Y6V0
SNTG1, Q9NSN8 = biological target: T4, SNTG1, Q9NSN8
IL16_4, Q14005 = biological target: IL16_4, Q14005
Sequence of IL16_4, Q14005 (Q14005 1229-1329): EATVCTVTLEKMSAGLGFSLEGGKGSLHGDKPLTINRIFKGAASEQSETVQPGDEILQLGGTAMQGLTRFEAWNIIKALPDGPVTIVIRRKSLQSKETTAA

LIMK2, P53671 = biological target: LIMK2, P53671
Sequence of LIMK2, P53671 (P53671 143-248): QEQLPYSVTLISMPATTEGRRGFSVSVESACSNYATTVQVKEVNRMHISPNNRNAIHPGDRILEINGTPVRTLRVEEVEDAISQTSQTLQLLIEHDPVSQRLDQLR

PDZRN3_1, Q9UPQ7 = biological target: T5, PDZRN3_1, Q9UPQ7
FRMPD2_1, Q68DX3 = biological target: FRMPD2_1, Q68DX3
Sequence of FRMPD2_1, Q68DX3 (Q68DX3 770-861): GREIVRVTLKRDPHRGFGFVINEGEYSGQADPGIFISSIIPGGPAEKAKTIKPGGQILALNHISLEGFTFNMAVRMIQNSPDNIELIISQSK

GRASP, Q7Z6J2 = biological target: GRASP, Q7Z6J2
Sequence of GRASP, Q7Z6J2 (Q7Z6J2 96-193): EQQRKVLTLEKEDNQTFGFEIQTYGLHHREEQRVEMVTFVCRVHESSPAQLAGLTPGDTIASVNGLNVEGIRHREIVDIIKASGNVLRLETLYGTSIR

GRIP1_7, Q9Y3R0 = biological target: T6, GRIP1_7, Q9Y3R0
HTRA4, P83105 = biological target: T7, HTRA4, P83105
IL16_3, Q14005 = biological target: IL16_3, Q14005
Sequence of IL16_3, Q14005 (Q14005 1107-1207): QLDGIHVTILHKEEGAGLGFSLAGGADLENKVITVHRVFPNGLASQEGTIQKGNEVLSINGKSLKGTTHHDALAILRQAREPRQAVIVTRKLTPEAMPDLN

DLG5_1, Q8TDM6 = biological target: DLG5_1, Q8TDM6
Sequence of DLG5_1, Q8TDM6 (Q8TDM6 617-713): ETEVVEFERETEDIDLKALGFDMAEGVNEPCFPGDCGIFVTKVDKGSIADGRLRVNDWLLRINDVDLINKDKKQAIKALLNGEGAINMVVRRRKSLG

HTRA1, Q92743 = biological target: HTRA1, Q92743
Sequence of HTRA1, Q92743 (Q92743 360-477): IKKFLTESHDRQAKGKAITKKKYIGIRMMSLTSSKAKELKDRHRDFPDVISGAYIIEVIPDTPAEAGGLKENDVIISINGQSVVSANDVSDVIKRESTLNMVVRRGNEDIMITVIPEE

LNX1_3, Q8TBB1 = biological target: LNX1_3, Q8TBB1
Sequence of LNX1_3, Q8TBB1 (Q8TBB1 500-596): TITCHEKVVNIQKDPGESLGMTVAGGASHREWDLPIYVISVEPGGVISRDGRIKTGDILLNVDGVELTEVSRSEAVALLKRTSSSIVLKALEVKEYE

HTRA3, P83110 = biological target: T8, HTRA3, P83110
MPDZ_12, O75970 = biological target: T9, MPDZ_12, O75970
PARD3_3, Q8TEW0 = biological target: PARD3_3, Q8TEW0
Sequence of PARD3_3, Q8TEW0 (Q8TEW0 582-685): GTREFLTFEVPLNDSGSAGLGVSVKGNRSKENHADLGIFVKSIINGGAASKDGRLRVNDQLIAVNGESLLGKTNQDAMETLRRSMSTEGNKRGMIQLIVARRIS

FRMPD4, Q14CM0 = biological target: FRMPD4, Q14CM0
Sequence of FRMPD4, Q14CM0 (Q14CM0 67-160): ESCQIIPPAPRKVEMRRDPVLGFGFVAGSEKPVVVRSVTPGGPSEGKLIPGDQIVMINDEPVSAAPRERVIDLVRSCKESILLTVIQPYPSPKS

RADIL, Q96JH8 = biological target: T10, RADIL, Q96JH8
SNTB1, Q13884 = biological target: T11, SNTB1, Q13884
FRMPD2_2, Q68DX3 = biological target: FRMPD2_2, Q68DX3
Sequence of FRMPD2_2, Q68DX3 (Q68DX3 944-1038): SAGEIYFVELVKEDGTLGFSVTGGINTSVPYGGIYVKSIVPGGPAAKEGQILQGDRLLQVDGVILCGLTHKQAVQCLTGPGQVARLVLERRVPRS

| Binder | pKd (GORASP1, Q9BQQ3) | pKd (Inadl_3, Q8NI35) | pKd (NHERF4_1, Q86UT5-2) | pKd (Inadl_5, Q8NI35) | pKd (LNX2_2, Q8N448) | pKd (MPP6, Q9NZW5) | pKd (PCLO, Q9Y6V0) | pKd (SNTG1, Q9NSN8) | pKd (IL16_4, Q14005) | pKd (LIMK2, P53671) | pKd (PDZRN3_1, Q9UPQ7) | pKd (FRMPD2_1, Q68DX3) | pKd (GRASP, Q7Z6J2) | pKd (GRIP1_7, Q9Y3R0) | pKd (HTRA4, P83105) | pKd (IL16_3, Q14005) | pKd (DLG5_1, Q8TDM6) | pKd (HTRA1, Q92743) | pKd (LNX1_3, Q8TBB1) | pKd (HTRA3, P83110) | further results |
| --- | --- | --- | --- | --- | --- | --- | --- | --- | --- | --- | --- | --- | --- | --- | --- | --- | --- | --- | --- | --- | --- |
| NPDALPETLV [ARHGAP6, O43182] | below the threshold | 4.36 | 3.6 | below the threshold | 4.66 | below the threshold | below the threshold | 5.33 | below the threshold | below the threshold | 4.3 | below the threshold | below the threshold | 3.61 | below the threshold | below the threshold | below the threshold | 4.13 | below the threshold | below the threshold | pKd (MPDZ_12, O75970): below the threshold; pKd (PARD3_3, Q8TEW0): 3.85; pKd (FRMPD4, Q14CM0): below the threshold; pKd (RADIL, Q96JH8): 4.08; pKd (SNTB1, Q13884): 4.86; pKd (FRMPD2_2, Q68DX3): 4.99 |
| GRLLGLETNV [ARHGEF26, Q96DR7] | below the threshold | 3.58 | below the threshold | below the threshold | 4.13 | below the threshold | below the threshold | 4.95 | below the threshold | below the threshold | 3.59 | below the threshold | below the threshold | 4.11 | below the threshold | below the threshold | below the threshold | below the threshold | below the threshold | below the threshold | pKd (MPDZ_12, O75970): below the threshold; pKd (PARD3_3, Q8TEW0): below the threshold; pKd (FRMPD4, Q14CM0): below the threshold; pKd (RADIL, Q96JH8): below the threshold; pKd (SNTB1, Q13884): 4.79; pKd (FRMPD2_2, Q68DX3): 4.22 |
| QRPYRRESEI [KCNJ12, Q14500] | below the threshold | below the threshold | below the threshold | below the threshold | below the threshold | below the threshold | below the threshold | 3.82 | below the threshold | below the threshold | 4.68 | below the threshold | below the threshold | below the threshold | below the threshold | below the threshold | below the threshold | below the threshold | below the threshold | below the threshold | pKd (MPDZ_12, O75970): below the threshold; pKd (PARD3_3, Q8TEW0): below the threshold; pKd (FRMPD4, Q14CM0): below the threshold; pKd (RADIL, Q96JH8): below the threshold; pKd (SNTB1, Q13884): 3.86; pKd (FRMPD2_2, Q68DX3): below the threshold |
